Target: the molecule itself
Experiment: crystal structure; His6-CENP-E 2452-2598 at 11 mg/ml, crystallized in 0.2 M potassium citrate tribasic monohydrate, 20% w/v PEG 3350 pH 8.3, room temperature; a CENP-E dimer in the asymmetric unit

B1: His6-CENP-E_(2452-2598) (domain or fragment, human, UniProt Q02224-1 2452-2598, looked up)
chain: PYKEEIEDLKMKLVKIDLEKMKNAKEFEKEISATKATVEYQKEVIRLLRENLRRSQQAQDTSVISEHTDPQPSNKPLTCGGGSGIVQNTKALILKSEHIRLEKEISKLKQQNEQLIKQKNELLSNNQHLSNEVKTWKERTLKREAHK
notes: CENP-E (kinesin-7), human, residues 2452-2598, from CENP-E transcript variant 1 (NM_001813.2); in the crystal only K2454 to S2506 were seen (likely C-terminal degradation during crystallization); Cloned into pET3aTr; also called minimal corona targeting domain; corona-targeting domain of CENP-E; source: E. coli BL21, purified as previously described (Legal et al., 2020)
In the case of B1, the “stoichiometry N” value is reported as 2.
